According to patent US20220010018A1 (ALBERT EINSTEIN COLLEGE OF MEDICINE, published 2022):

T1: Human B7-H3 (human, UniProt Q5ZPR3 29-461, limits assumed)
T1 construct: also called human B7-H3 (SPR antigen)
T1 sequence: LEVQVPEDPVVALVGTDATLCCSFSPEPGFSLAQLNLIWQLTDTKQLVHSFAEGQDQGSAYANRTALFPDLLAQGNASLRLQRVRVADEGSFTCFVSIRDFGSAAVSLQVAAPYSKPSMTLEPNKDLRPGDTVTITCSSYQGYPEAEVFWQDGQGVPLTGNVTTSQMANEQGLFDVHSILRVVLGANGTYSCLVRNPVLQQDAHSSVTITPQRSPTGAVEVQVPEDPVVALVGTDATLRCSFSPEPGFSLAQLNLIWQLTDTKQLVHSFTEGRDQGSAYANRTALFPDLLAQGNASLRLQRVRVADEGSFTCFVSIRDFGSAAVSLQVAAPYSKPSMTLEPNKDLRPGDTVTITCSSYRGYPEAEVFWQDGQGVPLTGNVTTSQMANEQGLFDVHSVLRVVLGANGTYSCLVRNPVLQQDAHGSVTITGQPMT

T2: Mouse B7-H3 (mouse, UniProt Q8VE98 29-244, limits assumed)
T2 construct: The construct used in SPR is not described; also called mouse B7-H3 (SPR antigen)
T2 sequence (looked up): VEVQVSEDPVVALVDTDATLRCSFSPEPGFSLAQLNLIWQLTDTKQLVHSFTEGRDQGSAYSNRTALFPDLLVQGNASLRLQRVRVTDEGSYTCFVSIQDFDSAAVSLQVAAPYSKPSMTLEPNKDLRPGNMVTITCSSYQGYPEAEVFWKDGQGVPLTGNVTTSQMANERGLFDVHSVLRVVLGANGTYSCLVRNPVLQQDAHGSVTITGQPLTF

B1: monoclonal antibody 8B12 (antibody, IgG3, V domains shown)
VH: QVQLQQPGAELVKPGASVKMSCKASGYTFTSYWITWVKQRPGQGLEWIGDIYPGSGSTNYNEKFKSKATLTVDTSSSTAYMQLSSLTSEDSAVYYCARGGTRFSPFAYWGQGTLVTVSA
VL: DVLMTQTPLSLPVSLGDQASISCRSSQSIVHSNGNTYLEWYLQKPGQSPKLLIYKVSNRFSGVPDRFSGSGSGTDFTLKISRVEAEDLGVYYCFQGSHVPWTFGGGTKLEIKR
notes: Residue limits come from CLM-00006; also called mAb 8B12
B2: monoclonal antibody 12B4 (antibody, IgG2b, V domains shown)
VH: QVQLQQPGAELVKPGASVKLSCKASGYTFTSYWMHWVKQRPGQGLEWIGMIHPNSGSTNYNEKFKSKATLTVDKSSSTAYMQLSSLTSEDSAVYYCARYYYGSSYAMDYWGQGTSVTVS
VL: QIVLTQSPAIMSASPGEKVTITCSASSSVSYMHWFQQKPGTSPKLWIYSTSNLASGVPARFSGSGSGTSYSLTISRMEAEDAATYYCQQRSSYPYTFGGGTKLEIKR
notes: Residue limits come from CLM-00006; also called mAb 12B4

Columns and labels:
Human B7-H3 = target: T1, Human B7-H3; test: Surface Plasmon Resonance
Mouse B7-H3 = target: T2, Mouse B7-H3; test: Surface Plasmon Resonance

Binder | Kd (Human B7-H3) | koff (Human B7-H3) | kon (Human B7-H3) | Kd (Mouse B7-H3) | koff (Mouse B7-H3) | kon (Mouse B7-H3)
B1 | 0.3 nM | 0.000459 s⁻¹ | 1.51e+06 M⁻¹ s⁻¹ | 4.01 nM | 0.00237 s⁻¹ | 592000 M⁻¹ s⁻¹
B2 | 8.23 nM | 0.00509 s⁻¹ | 618000 M⁻¹ s⁻¹ | 15.4 nM | 0.0184 s⁻¹ | 1.19e+06 M⁻¹ s⁻¹
